Literature values in paper PMC4437577.

Biological target: PR-B (Homo sapiens) (UniProt P06401)
Assay: analytical ultracentrifugation

Kd: 8.8 µM
Substance: PR-B (from UniProt P06401)
